Test results from PMC7367260, “Nucleosome binding by the pioneer transcription factor OCT4” (Scientific Reports, 2020).

Columns and labels:
human histone H3.1 = human histone H3.1 (human, UniProt P68431 1-136); assay: cross-linking; XL-MS: LIN28B nucleosome (4.3 µM) mixed with OCT4 at nucleosome:OCT4 = 1:4, 1 h on ice, crosslinked with 9.6 mM DSS-H12/D12 at 30 °C for 30 min; Trypsin/Lys-C digest, LC/MS-MS, xQuest/xProphet; conditions: both partners purified
human histone H4 = biological target: T1, human histone H4 (human, UniProt P62805 1-103); assay: as above; conditions: both partners purified
T1 construct: histone H4, human canonical histone, wild type; Stood in the assays as part of the reconstituted LIN28B nucleosome; The H4 S47C mutant was used only for the chemical probing assay

B1: His6-tagged human OCT4 (5CS) (natural protein)
chain: MAGHLASDFAFSPPPGGGGDGPGGPEPGWVDPRTWLSFQGPPGGPGIGPGVGPGSEVWGIPPCPPPYEFCGGMAYCGPQVGVGLVPQGGLETSQPEGEAGVGVESNSDGASPEPCTVTPGAVKLEKEKLEQNPEESQDIKALQKELEQFAKLLKQKRITLGYTQADVGLTLGVLFGKVFSQTTISRFEALQLSFKNMSKLRPLLQKWVEEADNNENLQEISKAETLVQARKRKRTSIENRVRGNLENLFLQSPKPTLQQISHIAQQLGLEKDVVRVWFSNRRQKGKRSSSDYAQREDFEAAGSPFSGGPVSFPLAPGPHFGTPGYGSPHFTALYSSVPFPEGEAFPPVSVTTLGSPMHSN
notes: OCT4, human; 5CS mutant: all 5 Cys residues of the POUS·POUHD domain replaced with Ser; Expressed from pET15b in which the thrombin site was replaced with a PreScission site; no cleavage step is described, and the gel-shift methods name His6-OCT4 (5CS). pET15b would place the tag at the N-terminus (surmised); also called His6-OCT4 (5CS)
binding result (human histone H3.1): binds | binding result (human histone H4): binds
